Earlier results on one substance are cited in paper PMC5911825.

The target in this data set is Cys797 (UniProt position 797, LMPFGCLLDYV). Briefly: other (described only as 'titration experiments'). The settings on record: wild-type EGFR; ligand state not stated.

Take “Epidermal growth factor receptor (EGFR), wild type (Homo sapiens)”: the pKa (in general, the negative logarithm of the acid dissociation constant) is 5.5.
